From article PMC7264852, “Structural and Hydrodynamic Characterization of Dimeric Human Oligoadenylate Synthetase 2” (Biophysical Journal, 2020)
Values belong to the molecule of their own block, whether it stands above or below them.

Legend:
[1] = molecular target: OAS2 (Homo sapiens) (UniProt P29728); details: cited from earlier work
[2] = molecular target: recombinant human OAS1 (2′-5′-oligoadenylate synthetase 1) (human) (UniProt P00973); test: AUC; sedimentation velocity, OAS1 at 2.0–3.5 g/L, 20°C, 25,000 rpm, 20 mM Tris pH 7.2, 100 mM NaCl, 1 mM DTT, 10% glycerol; monomer to dimer
[3] = molecular target: recombinant human OAS1 (2′-5′-oligoadenylate synthetase 1) (human) (UniProt P00973); test: SEC-SAXS; OAS1 loaded at 4.14 g/L (50 μL) on a Shodex KW404 column, Diamond Light Source B21; peak-1 and peak-2 analysed separately; Mw by SAXS MoW
[4] = molecular target: the molecule itself; test: SEC-SAXS; OAS2 loaded at 4.00 g/L (50 μL) on a Shodex KW404 column, Diamond Light Source B21; volume-based molecular weight from DAMMIN

Molecule: OAS2 (from UniProt P29728)
Kd [1]: 5.1 nM

stoichiometry N [2]: 2
stoichiometry N [3]: 2
Molecule: recombinant human OAS1 (2′-5′-oligoadenylate synthetase 1) (from UniProt P00973 1-400) (enzyme)

B1: FLAG-tagged OAS2 (recombinant human 2′-5′-oligoadenylate synthetase 2, wild type) (enzyme, UniProt P29728-2 1-687, looked up)
chain: MGNGESQLSSVPAQKLGWFIQEYLKPYEECQTLIDEMVNTICDVLQEPEQFPLVQGVAIGGSYGRKTVLRGNSDGTLVLFFSDLKQFQDQKRSQRDILDKTGDKLKFCLFTKWLKNNFEIQKSLDGFTIQVFTKNQRISFEVLAAFNALSLNDNPSPWIYRELKRSLDKTNASPGEFAVCFTELQQKFFDNRPGKLKDLILLIKHWHQQCQKKIKDLPSLSPYALELLTVYAWEQGCRKDNFDIAEGVRTVLELIKCQEKLCIYWMVNYNFEDETIRNILLHQLQSARPVILDPVDPTNNVSGDKICWQWLKKEAQTWLTSPNLDNELPAPSWNVLPAPLFTTPGHLLDKFIKEFLQPNKCFLEQIDSAVNIIRTFLKENCFRQSTAKIQIVRGGSTAKGTALKTGSDADLVVFHNSLKSYTSQKNERHKIVKEIHEQLKAFWREKEEELEVSFEPPKWKAPRVLSFSLKSKVLNESVSFDVLPAFNALGQLSSGSTPSPEVYAGLIDLYKSSDLPGGEFSTCFTVLQRNFIRSRPTKLKDLIRLVKHWYKECERKLKPKGSLPPKYALELLTIYAWEQGSGVPDFDTAEGFRTVLELVTQYQQLCIFWKVNYNFEDETVRKFLLSQLQKTRPVILDPAEPTGDVGGGDRWCWHLLAKEAKEWLSSPCFKDGTGNPIPPWKVPVKVI
notes: human 2′-5′-oligoadenylate synthetase 2 (OAS2); residues D408, D410, D481, C668, F669, K670 are named; The N-terminal position of FLAG is stated only for the CAFAKA mutant; also called FLAG-OAS2; wild-type OAS2; source: HEK293T, transfected (pcDNA3); in lysate for the co-immunoprecipitation
stoichiometry N [4]: 2
